Experiments:
[1] = target: C3b (Complement Technology cat. A114), purified human C3b (UniProt P01024)
[2] = target: C3b (Complement Technology cat. A114), purified human C3b, P01024
C3b (Complement Technology cat. A114), purified human C3b, P01024, sequence (P01024 whole entry, looked up): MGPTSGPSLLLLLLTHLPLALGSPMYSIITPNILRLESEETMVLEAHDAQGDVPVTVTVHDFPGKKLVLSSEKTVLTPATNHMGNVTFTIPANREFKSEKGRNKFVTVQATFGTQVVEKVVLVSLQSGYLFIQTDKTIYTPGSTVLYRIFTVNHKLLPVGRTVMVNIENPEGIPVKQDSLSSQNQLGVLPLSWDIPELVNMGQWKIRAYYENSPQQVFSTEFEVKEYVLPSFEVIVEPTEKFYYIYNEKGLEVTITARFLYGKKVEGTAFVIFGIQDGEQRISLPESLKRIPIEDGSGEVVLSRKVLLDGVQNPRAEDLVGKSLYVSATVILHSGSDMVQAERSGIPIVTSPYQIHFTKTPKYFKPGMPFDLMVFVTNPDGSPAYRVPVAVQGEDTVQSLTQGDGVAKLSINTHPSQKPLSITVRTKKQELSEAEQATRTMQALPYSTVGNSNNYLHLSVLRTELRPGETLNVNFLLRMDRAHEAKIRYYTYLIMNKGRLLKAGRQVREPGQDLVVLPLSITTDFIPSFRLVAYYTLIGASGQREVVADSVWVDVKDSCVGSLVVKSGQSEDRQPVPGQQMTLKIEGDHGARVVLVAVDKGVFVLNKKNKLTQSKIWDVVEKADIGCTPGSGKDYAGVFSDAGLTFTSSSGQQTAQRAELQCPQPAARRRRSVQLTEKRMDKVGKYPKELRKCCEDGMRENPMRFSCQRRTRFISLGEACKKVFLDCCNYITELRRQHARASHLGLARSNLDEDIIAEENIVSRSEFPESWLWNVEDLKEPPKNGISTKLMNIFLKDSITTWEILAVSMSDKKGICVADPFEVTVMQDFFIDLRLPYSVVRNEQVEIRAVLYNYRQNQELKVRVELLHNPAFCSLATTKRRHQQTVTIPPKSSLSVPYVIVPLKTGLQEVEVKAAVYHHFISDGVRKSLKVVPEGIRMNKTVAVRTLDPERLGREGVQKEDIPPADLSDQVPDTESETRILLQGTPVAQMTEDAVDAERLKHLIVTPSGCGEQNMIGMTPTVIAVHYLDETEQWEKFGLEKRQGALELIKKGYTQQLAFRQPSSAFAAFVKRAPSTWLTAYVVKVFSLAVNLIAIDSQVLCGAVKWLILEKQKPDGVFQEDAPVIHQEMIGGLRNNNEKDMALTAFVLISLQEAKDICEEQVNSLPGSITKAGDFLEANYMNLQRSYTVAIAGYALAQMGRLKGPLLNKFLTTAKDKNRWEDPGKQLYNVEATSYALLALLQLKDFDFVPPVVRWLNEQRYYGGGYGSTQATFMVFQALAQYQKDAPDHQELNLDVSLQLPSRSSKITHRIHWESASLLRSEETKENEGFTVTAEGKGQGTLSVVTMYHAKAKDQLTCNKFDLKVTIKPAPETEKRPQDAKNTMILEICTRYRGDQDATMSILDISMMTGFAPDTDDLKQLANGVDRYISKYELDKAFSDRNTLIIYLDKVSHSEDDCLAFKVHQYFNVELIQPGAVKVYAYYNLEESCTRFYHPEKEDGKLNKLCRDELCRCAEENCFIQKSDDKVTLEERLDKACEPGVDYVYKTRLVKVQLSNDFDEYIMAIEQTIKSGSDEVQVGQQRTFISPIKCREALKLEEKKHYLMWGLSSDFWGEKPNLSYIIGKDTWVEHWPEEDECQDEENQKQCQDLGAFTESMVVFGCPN

Row | Molecule | fluorescence cofactor assay: change in RFUs of ANS-labeled C3b over time, with cofactor CFH, MCP or CR1 [1] | other results
1 | A240G CFI protein (Complement Factor I mutant variant) | certain CFI mutations (G119R, A240G, and P553S) were associated with greatly reduced CFI protein function | 
2 | A300T CFI protein (Complement Factor I mutant variant) | the A300T mutation appeared to have relatively little impact on CFI function | 
3 | G119R CFI protein (Complement Factor I mutant variant) | certain CFI mutations (G119R, A240G, and P553S) were associated with greatly reduced CFI protein function | 
4 | P553S CFI protein (Complement Factor I mutant variant) | certain CFI mutations (G119R, A240G, and P553S) were associated with greatly reduced CFI protein function | 
5 | purified CFI (Comptech cat. A138) (protein) KVTYTSQEDLVEKKCLAKKYTHLSCDKVFCQPWQRCIEGTCVCKLPYQCPKNGTAVCATNRRSFPTYCQQKSLECLHPGTKFLNNGTCTAEGKFSVSLKHGNTDSEGIVEVKLVDQDKTMFICKSSWSMREANVACLDLGFQQGADTQRRFKLSDLSINSTECLHVHCRGLETSLAECTFTKRRTMGYQDFADVVCYTQKADSPMDDFFQCVNGKYISQMKACDGINDCGDQSDELCCKACQGKGFHCKSGVCIPSQYQCNGEVDCITGEDEVGCAGFASVTQEETEILTADMDAERRRIKSLLPKLSCGVKNRMHIRRKRIVGGKRAQLGDLPWQVAIKDASGITCGGIYIGGCWILTAAHCLRASKTHRYQIWTTVVDWIHPDLKRIVIEYVDRIIFHENYNAGTYQNDIALIEMKKDGNKKDCELPRSIPACVPWSPYLFQPNDTCIVSGWGREKDNERVFSLQWGEVKLISNCSKFYGNRFYEKEMECAGTYDGSIDACKGDSGGPLVCMDANNVTYVWGVVSWGENCGKPEFPGVYTKVANYFDWISYHVGRPFISQYNV |  | slope of the co-factor assay (fluorescence of C3b/ANS with CFH, kinetic mode) [2]: the slope of the CFI control sample is -0.75±0.02
6 | CFI expressed in eyes of cynomolgus monkeys from AAV2-GP2031 (vector SEQ ID NO: 33) (protein) KVTYTSQEDLVEKKCLAKKYTHLSCDKVFCQPWQRCIEGTCVCKLPYQCPKNGTAVCATNRRSFPTYCQQKSLECLHPGTKFLNNGTCTAEGKFSVSLKHGNTDSEGIVEVKLVDQDKTMFICKSSWSMREANVACLDLGFQQGADTQRRFKLSDLSINSTECLHVHCRGLETSLAECTFTKRRTMGYQDFADVVCYTQKADSPMDDFFQCVNGKYISQMKACDGINDCGDQSDELCCKACQGKGFHCKSGVCIPSQYQCNGEVDCITGEDEVGCAGFASVAQEETEILTADMDAERRRIKSLLPKLSCGVKNRMHIRRKRIVGGKRAQLGDLPWQVAIKDASGITCGGIYIGGCWILTAAHCLRASKTHRYQIWTTVVDWIHPDLKRIVIEYVDRIIFHENYNAGTYQNDIALIEMKKDGNKKDCELPRSIPACVPWSPYLFQPNDTCIVSGWGREKDNERVFSLQWGEVKLISNCSKFYGNRFYEKEMECAGTYDGSIDACKGDSGGPLVCMDANNVTYVWGVVSWGENCGKPEFPGVYTKVANYFDWISYHVGRPFISQYNV |  | fluorescence cofactor assay with CFH: reduction in fluorescence at 472 nm of C3b/ANS mixed with vitreous humor [2]: CFI expressed in eyes of cynomolgus monkeys was capable of cleaving C3b in a dose-dependent manner
